Measured values from the supplement of paper PMC10567573.

B1: TRIM35 (parent)
chain: WEVQVSPTCPVCKDRASPADLRTN

Variants of: B1
Assay: protein stability index of a GFP-peptide fusion (GPS, HEK-293T) (PSI 1-6); higher = more stable
Details: c terminus: a fixed tail appended
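Note: lentivirally expressed fusions sorted by FACS into six bins by GFP to DsRed ratio, PSI derived from sequencing read proportions per bin multiplied by bin number.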

In order of falling protein stability index:
1. WEVQVSPTKPVCKDRASPADLRTN [C9K]  4.72
2. WEVQVSPTCPVAKDRASPADLRTN [C12A]  4.59
3. WEVQVSPTQPVCKDRASPADLRTN [C9Q]  4.56
4. WEVQVSPTEPVCKDRASPADLRTN [C9E]  4.49
5. WEVQVSPTNPVCKDRASPADLRTN [C9N]  4.34
6. WEVQVSPTRPVCKDRASPADLRTN [C9R]  4.04
7. WEVQVSPTGPVCKDRASPADLRTN [C9G]  3.97
8. WEVQVSPTCPVPKDRASPADLRTN [C12P]  3.86
9. WEVQVSPTCPVLKDRASPADLRTN [C12L]  3.8
10. WEVQVSPTCPVCKDRASPADLVTN [R22V]  3.75
11. WEVQVSPTHPVCKDRASPADLRTN [C9H]  3.74
12. WEVQVSPTCPVCPDRASPADLRTN [K13P]  3.74
13. WEVQVSPTCPKCKDRASPADLRTN [V11K]  3.7
14. WEVQVSPTIPVCKDRASPADLRTN [C9I]  3.53
15. WEVQVSPTYPVCKDRASPADLRTN [C9Y]  3.5
16. WEVQVSPTCPVCKDRASPADLKTN [R22K]  3.34
17. WEVQVSPTCPVCKDRASPADLQTN [R22Q]  3.33
18. WEVQVSPTCPVCKDPASPADLRTN [R15P]  3.31
19. WEVQVSPTCPVFKDRASPADLRTN [C12F]  3.29
20. WEVQVSPTCPVCKDRASPADCRTN [L21C]  3.26
21. WEVQVSPTCPVCLDRASPADLRTN [K13L]  3.25
22. WEVQVSPTCPVCKDAASPADLRTN [R15A]  3.22
23. WEVQVSPTCPVCKDRASPADNRTN [L21N]  3.21
24. WEVQVSPTMPVCKDRASPADLRTN [C9M]  3.15
25. WEVQVSPTCPTCKDRASPADLRTN [V11T]  3.14
26. WEVQVSPECPVCKDRASPADLRTN [T8E]  3.07
27. WEVQVSPTCPVCKDRASPAELRTN [D20E]  2.95
28. WEVQVSPTCPVCKDRASPADLSTN [R22S]  2.91
29. WEVQVSPTCPVCKDRASPADLCTN [R22C]  2.91
30. WEVQVSPTCPNCKDRASPADLRTN [V11N]  2.9
31. WEVQVSPTCPWCKDRASPADLRTN [V11W]  2.88
32. WEVQVSPTCPVCKDRASIADLRTN [P18I]  2.87
33. WEVQVSPTFPVCKDRASPADLRTN [C9F]  2.85
34. WEVQVSPTCPVCKFRASPADLRTN [D14F]  2.81
35. WEVQVSPNCPVCKDRASPADLRTN [T8N]  2.79
36. WEVQVSPTCPVCKERASPADLRTN [D14E]  2.75
37. WEVQVSPTCPVCKDVASPADLRTN [R15V]  2.74
38. WEVQVSPTCPVCEDRASPADLRTN [K13E]  2.71
39. WEVQVSPTCPVCVDRASPADLRTN [K13V]  2.7
40. WEVQVSPTCPVCQDRASPADLRTN [K13Q]  2.66
41. WEVQVSPTCPVCKDRASPADWRTN [L21W]  2.62
42. WEVQVSPTCPVCKDRASVADLRTN [P18V]  2.57
43. WEVQVSPTCPVCKDRASTADLRTN [P18T]  2.57
44. WEVQVSPTCPVCKDRASPADYRTN [L21Y]  2.57
45. WEVQVSPWCPVCKDRASPADLRTN [T8W]  2.56
46. WEVQVSPTCPVCKDTASPADLRTN [R15T]  2.54
47. WEVQVSPTCPVCKKRASPADLRTN [D14K]  2.54
48. WEVQVSPTWPVCKDRASPADLRTN [C9W]  2.52
49. WEVQVSPTCPVCKDRASGADLRTN [P18G]  2.51
50. WEVQVSPTCPVCKDRASPADQRTN [L21Q]  2.5
51. WEVQVSPTCPVCKARASPADLRTN [D14A]  2.49
52. WEVQVSPTCPVCKDIASPADLRTN [R15I]  2.48
53. WEVQVSPGCPVCKDRASPADLRTN [T8G]  2.48
54. WEVQVSPTCPVCKDLASPADLRTN [R15L]  2.47
55. WEVQVSPKCPVCKDRASPADLRTN [T8K]  2.39
56. WEVQVSPTCPVCNDRASPADLRTN [K13N]  2.39
57. WEVQVSPSCPVCKDRASPADLRTN [T8S]  2.37
58. WEVTVSPTCPVCKDRASPADLRTN [Q4T]  2.36
59. WEVQVSPTCPQCKDRASPADLRTN [V11Q]  2.3
60. WEVQVSPTCPVCKDCASPADLRTN [R15C]  2.26
61. WEVQVSPTCPICKDRASPADLRTN [V11I]  2.24
62. WEVQVSPTCPVCKDRASPADLFTN [R22F]  2.22
63. WEVCVSPTCPVCKDRASPADLRTN [Q4C]  2.2
64. WEVQVSPTCPVCSDRASPADLRTN [K13S]  2.19
65. WEVQVSPTCPVCIDRASPADLRTN [K13I]  2.17
66. WEVQVSPTCPVCKDRASPALLRTN [D20L]  2.15
67. WEVQVSPTCPVCKDRASQADLRTN [P18Q]  2.13
68. WEVQVSPTCPVCKDFASPADLRTN [R15F]  2.07
69. WEVQVSPTCPVCYDRASPADLRTN [K13Y]  2.05
70. WEVQVSPTCPVCKDMASPADLRTN [R15M]  2.04
71. WEVQVSPTCPVCKDRASAADLRTN [P18A]  2.04
72. WEVQVSPTCPVCKDRASPADLGTN [R22G]  2.03
73. WEVVVSPTCPVCKDRASPADLRTN [Q4V]  2
74. WEVQVSPTCPVCDDRASPADLRTN [K13D]  2
75. WEVQVSPTCPVCKDRASPADFRTN [L21F]  2
76. WEVQVSPTCPVCKDRASMADLRTN [P18M]  1.99
77. WEVQVSPTCPHCKDRASPADLRTN [V11H]  1.96
78. WEVQVSPTCPVCKDRASFADLRTN [P18F]  1.95
79. WEVQVSPTCPVCMDRASPADLRTN [K13M]  1.94
80. WEVQVSPTCPVCKDRASPACLRTN [D20C]  1.91
81. WEVQVSPTCPLCKDRASPADLRTN [V11L]  1.9
82. WEVQVSPLCPVCKDRASPADLRTN [T8L]  1.88
83. WEVSVSPTCPVCKDRASPADLRTN [Q4S]  1.87
84. WEVQVSPTCPSCKDRASPADLRTN [V11S]  1.79
85. WEVQVSPTCPVCKMRASPADLRTN [D14M]  1.75
86. WEVAVSPTCPVCKDRASPADLRTN [Q4A]  1.73
87. WEVQVSPRCPVCKDRASPADLRTN [T8R]  1.7
88. WEVQVSPVCPVCKDRASPADLRTN [T8V]  1.66
89. WEVQVSPTCPYCKDRASPADLRTN [V11Y]  1.51
90. WEVWVSPTCPVCKDRASPADLRTN [Q4W]  1.48
91. WEVQVSPTCPVCKDRASPAILRTN [D20I]  1.47
92. WEVQVSPTCPVCRDRASPADLRTN [K13R]  1.46
93. WEVQVSPTCPVCKDRASPAYLRTN [D20Y]  1.18
94. WEVQVSPTCPVCKCRASPADLRTN [D14C]  1.03
